In US20160369008A1:

Tests used:
[1] = molecular target: recombinant active human PAI-1 (human) (UniProt P05121); assay: cell-based or functional assay
[2] = molecular target: active human PAI-1 in complex with vitronectin (human) (UniProt P05121); assay: ELISA, VTN-PAI-1 complex on the plate
[3] = molecular target: human PAI-1 in complex with tPA (human) (UniProt P05121); assay: ELISA, tPA-PAI-1 complex on the plate
[4] = molecular target: human PAI-1 in complex with uPA (human) (UniProt P05121); assay: ELISA, uPA-PAI-1 complex on the plate
[5] = molecular target: latent human PAI-1 (human) (UniProt P05121); assay: ELISA, latent human PAI-1 on the plate
[6] = molecular target: latent monkey PAI-1 (monkey) (UniProt G7P138); assay: ELISA, latent monkey PAI-1 on the plate
[7] = molecular target: active monkey PAI-1 in complex with vitronectin (monkey); assay: ELISA, VTN-monkey PAI-1 complex on the plate
active monkey PAI-1 in complex with vitronectin (monkey), sequence (P04004 20-478, one chain of several): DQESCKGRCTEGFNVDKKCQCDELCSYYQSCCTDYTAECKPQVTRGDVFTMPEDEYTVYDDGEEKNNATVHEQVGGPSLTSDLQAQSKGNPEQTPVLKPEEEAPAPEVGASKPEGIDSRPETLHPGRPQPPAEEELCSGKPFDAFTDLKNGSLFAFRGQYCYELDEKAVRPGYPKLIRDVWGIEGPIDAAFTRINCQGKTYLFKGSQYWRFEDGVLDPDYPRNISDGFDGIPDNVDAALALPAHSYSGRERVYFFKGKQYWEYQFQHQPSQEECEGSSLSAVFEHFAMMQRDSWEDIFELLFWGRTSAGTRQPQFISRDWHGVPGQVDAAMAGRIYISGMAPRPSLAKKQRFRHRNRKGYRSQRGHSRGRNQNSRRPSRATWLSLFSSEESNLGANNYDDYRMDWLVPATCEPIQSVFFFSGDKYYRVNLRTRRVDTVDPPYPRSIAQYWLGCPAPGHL

[8] = molecular target: tPA-monkey PAI-1 complex (monkey); assay: ELISA, tPA-monkey PAI-1 complex on the plate
tPA-monkey PAI-1 complex (monkey), sequence (P00750 36-562, one chain of several): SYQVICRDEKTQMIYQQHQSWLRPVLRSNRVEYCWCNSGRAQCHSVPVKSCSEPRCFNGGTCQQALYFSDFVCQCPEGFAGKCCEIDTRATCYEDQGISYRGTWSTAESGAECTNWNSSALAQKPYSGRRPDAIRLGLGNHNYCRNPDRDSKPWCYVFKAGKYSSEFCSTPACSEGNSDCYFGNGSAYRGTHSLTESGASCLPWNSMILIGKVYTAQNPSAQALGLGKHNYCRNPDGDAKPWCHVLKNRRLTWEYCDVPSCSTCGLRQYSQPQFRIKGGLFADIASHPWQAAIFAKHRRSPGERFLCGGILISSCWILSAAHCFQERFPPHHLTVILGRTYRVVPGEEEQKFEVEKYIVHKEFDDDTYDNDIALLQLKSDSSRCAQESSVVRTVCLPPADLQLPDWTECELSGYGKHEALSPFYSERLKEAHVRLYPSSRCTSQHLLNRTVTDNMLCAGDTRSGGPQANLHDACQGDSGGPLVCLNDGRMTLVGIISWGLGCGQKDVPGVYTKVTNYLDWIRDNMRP

[9] = molecular target: uPA-monkey PAI-1 complex (monkey) (UniProt P00749); assay: ELISA, uPA-monkey PAI-1 complex on the plate
[10] = molecular target: active PAI-1 in human plasma (human) (UniProt P05121); assay: ELISA: inhibition of the capture of active PAI-1 of human plasma on immobilised uPA (Example 9)
[11] = molecular target: active PAI-1 in monkey plasma (cynomolgus monkey) (UniProt G7P138); assay: ELISA: inhibition of the capture of active PAI-1 of monkey plasma on immobilised uPA (Example 9)

MEDI-579 (antibody), sequence (VH): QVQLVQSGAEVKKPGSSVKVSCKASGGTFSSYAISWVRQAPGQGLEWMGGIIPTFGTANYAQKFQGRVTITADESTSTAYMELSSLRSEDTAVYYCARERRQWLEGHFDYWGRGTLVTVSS
MEDI-579 (antibody), sequence (VL): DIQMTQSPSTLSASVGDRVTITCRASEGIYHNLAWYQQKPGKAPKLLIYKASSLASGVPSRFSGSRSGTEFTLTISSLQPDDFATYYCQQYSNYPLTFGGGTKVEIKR

EC50 value, taking the activity of uPA as an indicator (cleavage of a fluorogenic uPA substrate peptide) [1]: 42.1 ng/mL | EC50 [2]: 5.2 ng/mL | EC50 [3]: 3.2 ng/mL | EC50 [4]: 6.1 ng/mL | EC50 [5]: 22.1 ng/mL | EC50 [6]: 48.2 ng/mL | EC50 [7]: 4.1 ng/mL | EC50 [8]: 4.3 ng/mL | EC50 [9]: 5.4 ng/mL | IC50 [10]: 0.73 ng/mL | IC50 [11]: 0.83 ng/mL
Substance: MEDI-579 (antibody)
